# Data from patent publication US20200010542A1 (MorphoSys, published 2020).
# T1: human IL-17C (human, UniProt Q9P0M4 19-197)
# T1 construct: Secreted homodimer; bought or made in-house; Novus #NBP1-42910 in the cell assays; also called hIL-17C; hGT454
# T1 sequence: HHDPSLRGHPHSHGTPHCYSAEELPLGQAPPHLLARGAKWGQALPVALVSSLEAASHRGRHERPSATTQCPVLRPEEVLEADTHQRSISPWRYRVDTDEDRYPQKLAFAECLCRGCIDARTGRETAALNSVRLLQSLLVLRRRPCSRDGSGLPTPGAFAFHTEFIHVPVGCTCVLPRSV
# T2: mouse IL-17C (mouse, UniProt Q8K4C5 17-194)
# T2 construct: R&D Systems #2306-ml-025 in the reporter assay; biotinylated in the screens; also called mIL-17C; mGT454
# T2 sequence: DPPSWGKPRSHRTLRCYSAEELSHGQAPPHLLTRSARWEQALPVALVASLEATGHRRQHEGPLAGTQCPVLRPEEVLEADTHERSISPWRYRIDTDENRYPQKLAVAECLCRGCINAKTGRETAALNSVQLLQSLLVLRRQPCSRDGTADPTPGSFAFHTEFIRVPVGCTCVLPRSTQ
# T3: cynomolgus IL-17C (cynomolgus monkey, UniProt Q9P0M4 19-197 (human entry), limits assumed)
# T3 chain: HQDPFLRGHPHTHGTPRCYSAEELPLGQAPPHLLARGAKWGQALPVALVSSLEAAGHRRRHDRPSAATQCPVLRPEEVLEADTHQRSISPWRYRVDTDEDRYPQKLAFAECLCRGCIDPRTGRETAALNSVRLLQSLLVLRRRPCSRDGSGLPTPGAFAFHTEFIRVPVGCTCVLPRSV
# B1: mab_1 (IgG1) (antibody, V domains shown)
# VH: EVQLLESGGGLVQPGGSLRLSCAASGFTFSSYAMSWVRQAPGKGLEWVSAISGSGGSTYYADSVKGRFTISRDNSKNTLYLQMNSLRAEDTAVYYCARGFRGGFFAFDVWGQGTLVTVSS
# VL: SYELTQPPSVSVSPGQTASITCSGDKLGDKYAYWYQQKPGQSPVLVIYQDSKRPSGIPERFSGSNSGNTATLTISGTQAEDEADYYCQAWTFPLLTWVFGGGTKLTVLG
# notes: Human IgG1 from the Ylanthia library, VH3-23 / Vlambda3-1, made in HKB11 cells
# B2: mab_1 Fab (Fab, V domains shown)
# VH: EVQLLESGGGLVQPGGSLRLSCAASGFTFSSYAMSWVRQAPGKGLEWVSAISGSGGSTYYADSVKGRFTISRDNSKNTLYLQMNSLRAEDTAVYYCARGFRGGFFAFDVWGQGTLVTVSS
# VL: SYELTQPPSVSVSPGQTASITCSGDKLGDKYAYWYQQKPGQSPVLVIYQDSKRPSGIPERFSGSNSGNTATLTISGTQAEDEADYYCQAWTFPLLTWVFGGGTKLTVLG
# notes: His-tagged Fab made in E. coli; also called mab_1 (Fab format)
# B3: mab_8 Fab (Fab, V domains shown)
# VH: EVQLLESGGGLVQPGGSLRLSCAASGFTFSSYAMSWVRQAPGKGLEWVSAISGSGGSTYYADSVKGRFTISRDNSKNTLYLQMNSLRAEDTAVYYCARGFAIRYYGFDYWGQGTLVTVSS
# VL: SYELTQPPSVSVSPGQTASITCSGDKLGDKYAYWYQQKPGQSPVLVIYQDSKRPSGIPERFSGSNSGNTATLTISGTQAEDEADYYCQVFTFPLVTTVFGGGTKLTVLG
# notes: His-tagged Fab made in E. coli; also called mab_8 (Fab format)
# B4: mab_8 (IgG1) (antibody, V domains shown)
# VH: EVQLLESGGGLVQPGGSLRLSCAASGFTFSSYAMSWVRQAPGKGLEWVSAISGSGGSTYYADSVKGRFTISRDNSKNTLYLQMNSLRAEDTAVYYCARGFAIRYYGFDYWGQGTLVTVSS
# VL: SYELTQPPSVSVSPGQTASITCSGDKLGDKYAYWYQQKPGQSPVLVIYQDSKRPSGIPERFSGSNSGNTATLTISGTQAEDEADYYCQVFTFPLVTTVFGGGTKLTVLG
# notes: as for B1
# Experiments:
# human IL-17C [1] = target: T1, human IL-17C; assay: SET (ECL based), IgG, bivalent affinity, hGT454
# Procedure: (§1) Additionally monovalent Fab and bivalent IgG affinity was determined by SET. Therefore purified Fabs and IgGs were titrated on human or mouse IL-17C for EC₅₀ determination. The results confirmed the proposed avidity effect exerted by IgG antibodies forming mainly class III complexes.
# (§2) Solution equilibrium titration (SET) was basically performed as described in the literature (Friquet et al., (1985) J. Immunol. Meth. 77: 305-19). In order to improve the sensitivity and accuracy of the SET method, it was transferred from classical ELISA to ECL based technology (Haenel et al. (2005) Anal Biochem. 339.1: 182-84).
# human IL-17C [2] = target: T1, human IL-17C; assay: MSD receptor binding inhibition: IgG with biotinylated IL-17C on coated IL17RE/Fc (head: hIL-17C-hIL17RE; text: mouse IL17RE/Fc)
# Procedure: Purified IL-17C specific IgGs were tested in mIL-17 RE interaction assay. Therefore MA6000 384 well plates (Meso Scale Discovery, MSD) were coated with 30 μl mouse IL17RE/Fc chimeric protein at 75 ng/ml in PBS at 4° C. overnight. The next day a serial antibody dilution (concentrations from 0.001 to 100 nM) were pre-incubated for 30 min at RT with an equal volume of biotinylated IL-17C. After blocking of plates for 1 h with 2.5% BSA in PBST, previously formed antibody-ligand complexes were added for 1 h to coated IL17RE/Fc and receptor binding was detected via Streptavidin-ECL using MSD Sector Imager.
# mouse IL-17C [3] = target: T2, mouse IL-17C; assay: SET (ECL based), IgG, bivalent affinity, mGT454
# Procedure: as §1, §2
# human IL-17C [4] = target: T1, human IL-17C; assay: cell-based or functional assay
# mouse IL-17C [5] = target: T2, mouse IL-17C; assay: cell-based or functional assay
# human IL-17C [6] = target: T1, human IL-17C; assay: cell-based or functional assay; remark: listed apart in the source
# cynomolgus IL-17C = target: T3, cynomolgus IL-17C; assay: cell-based or functional assay
# human IL-17C [7] = target: T1, human IL-17C; assay: SET (ECL based), Fab, monovalent affinity, hGT454
# Procedure: as §1, §2
# mouse IL-17C [8] = target: T2, mouse IL-17C; assay: SET (ECL based), Fab, monovalent affinity, mGT454
# Procedure: as §1, §2
Binder,EC50 (human IL-17C [1]) [nM],IC50 (human IL-17C [2]) [nM],EC50 (mouse IL-17C [3]) [nM],NHEK assay IC50 [pM] (expression of DEFB4A) (human IL-17C [4]),NF-kB reporter gene assay (IgG) IC50 [pM] (mouse IL-17C [5]),NF-kB reporter gene assay (IgG) IC50 [pM] (human IL-17C [6]),NF-kB reporter gene assay (IgG) IC50 [pM] (cynomolgus IL-17C),EC50 (human IL-17C [7]) [nM],EC50 (mouse IL-17C [8]) [nM]
B1,0.017,0.04,0.15,415,46,29,24,,
B2,,,,,,,,4.8,72
B3,,,,,,,,2.7,490
B4,0.022,0.13,3.35,93,1770,42,39,,
